Substrate in data set [1]: O=C(O)CCC(=O)C(=O)O
Put plainly: purified protein. Conditions: 0.2 mM NADH, 0.2 mM yNA, pH 8, 28 °C.

Substrate in data set [2]: CC(=O)C(=O)O
Put plainly: purified protein. In kind it is biochemical, Staphylococcus aureus. The note with it: 0.2 mM NADPH, 0.2 mM xNA, pH 7, 28 °C.

Broadly, the Km is the substrate concentration at which the rate is half of its maximum. As a reminder, the kcat is the number of substrate molecules converted per active site and unit of time at saturation.

B1: PaCntM (Pseudomonas aeruginosa PAO1) (protein)
chain: MNAADESLGNVLLVGLGAVAIQVALDLRRHGAGRLGALNHPGRRSQRIAEALARGACLQLEGQGQHRWLSGNAALDVFHQDPAELRDDWQTLVLCVPADSYLDVVRGLPWERLGGVRTLLLVSAFIGANLLVRSALPAGCQATVLSLSSYYAATKVIDETQPLRALTKAVKRRVYLGSSRPDCPARETWRRVLAGSGVEVVPLATPEAAEGRNVTTYVHSPFFLGEFALARILSEQGPPGFMYKLYPEGPITPGAIGAMRRLWCELSELLRRMGAEPLNLLRFLNDDNYPVHETMLPRASIDGFAEAGAERQEYLLFVRYAALLVDPFSPADEQGRHFDFSAVPFRRVSRDEDGLWRLPRVPLEDYRKLALIVALAAHFDLAMPQARSLLASYENAVSRFIDCQGASQCHPSLYPIDSRPAADAIYRQWCSTC
Consider B1, for which, in the data set “purified protein [1]”, the Michaelis-Menten constant (Km) was 133 ± 39 µM and the catalytic constant (kcat) came out at 0.27 ± 0.02 s⁻¹.

B2: SaCntM (Staphylococcus aureus subsp. aureus Mu50) (protein)
chain: MSKLLMIGTGPVAIQLANICYLKSDYEIDMVGRASTSEKSKRLYQAYKKEKQFEVKIQNEAHQHLEGKFEINRLYKDVKNVKGEYETVVMACTADAYYDTLQQLSLETLQSVKHVILISPTFGSQMIVEQFMSKFSQDIEVISFSTYLGDTRIVDKEAPNHVLTTGVKKKLYMGSTHSNSTMCQRISALAEQLKIQLEVVESPLHAETRNSSLYVHPPLFMNDFSLKAIFEGTDVPVYVYKLFPEGPITMTLIREMRLMWKEMMAILQAFRVPSVNLLQFMVKENYPVRPETLDEGDIEHFEILPDILQEYLLYVRYTAILIDPFSQPDENGHYFDFSAVPFKQVYKNEQDVVQIPRMPSEDYYRTAMIQHIGKMLGIKTPMIDQFLTRYEASCQAYKDMHQDQQLSSQFNTNLFEGDKALVTKFLEINRTLS
On to B2, for which, in the data set “purified protein [2]”, the Michaelis-Menten constant (Km) was 51 ± 6 µM and the kcat worked out at 1.00 ± 0.02 s⁻¹.

The values above are taken from paper doi:10.1101/641969v1.
